The source of these data is PMC11799418.

The target in experiment [1] is Endophilin B1 (human) (UniProt Q9Y371). Nature of the experiment: cryo-EM structure; endophilin B1 incubated with MSP2N2 nanodiscs at molar ratio 1:2 (MSP2N2:endophilin B1); cryo-EM data split into 2 classes.
For experiment [2] the target is unchanged. Nature of the experiment: cryo-EM structure; endophilin B1 incubated with His6-MSP2N2 nanodiscs (90% DOPS, 10% 14:0 cardiolipin), molar ratio 1:10 (MSP2N2:endophilin B1), SEC peak vitrified; single-particle reconstruction of membrane-bound endophilin B1 on bicelles, cryoSPARC and cryoDRGN.
The target is the same in experiment [3]. Nature of the experiment: SAXS; in solution, 8 and 16 μM endophilin B1 (0.34 and 0.69 mg/ml); 150 mM NaCl, 20 mM HEPES, 1 mM TCEP, 0.5 mM DTT, pH 8.1, 4 °C; monomer to dimer.

On to “Endophilin B1 (from UniProt Q9Y371 1-365) (natural protein)”, for which the stoichiometry N in the experiment with Endophilin B1 (human) [1] and in the experiment with Endophilin B1 (human) [3] was 2 throughout. Further, in the experiment with Endophilin B1 (human) [2], the dimers bound per bicelle was 6 dimers.

The term stoichiometry N denotes the number of molecules, sites or subunits per partner or assembly.
